First the molecules themselves.
B1: HDV Ribozyme (parent)
chain: GGCCGGCAUGGUCCCAGCCUCCUCGCUGGCGCCGGCUGGGCAACAUUCCGAGGGGACCGUCCCCUCGGUAAUGGCGAAUGGGACCCA

In the series the parent is B1. Nature of the series: self-cleavage, relative activity (ratio to wild type); higher = more cleavage; co-transcriptional.
Turning to G11A C41A, the self-cleavage is 0.381.
With G11A C41G the figure was 0.188.
As to G11A C41U, the self-cleavage amounted to 0.396.
With G10C A70U the figure was 0.65; with G10C G73C, 0.277.
Under G11A G25C stands 0.0906.
Take G11A G25U: the self-cleavage turned out to be 0.0801.
With G10C C32A the figure was 0.185; with G10C C32U, 0.855; with G10C A87U, 0.984.
In the case of G11A G80A, the self-cleavage worked out at 0.197.
With G11A G80C the figure was 0.158; with G10U U60A, 0.635.
With G11A C18U the figure was 0.12; with G11A C18G, 0.041; with G11A C18A, 0.0841.
Under G10U G67A stands 0.611; under G10U G67U, 0.819; under G10U G67C, 0.572.
Take G11A C86U: the self-cleavage stood at 0.338.
Under G10U G34A stands 0.259; under G11A G38A, 0.102; under G11A G38C, 0.0911.
Under G10U U27G stands 0.465; under G10U U27A, 0.642; under G11A A16G, 0.323.
Regarding G11A A16C, the self-cleavage worked out at 0.35.
Under G11A G52C stands 0.521; under G11A G52U, 0.548; under G10C U69G, 0.997.
Under G10C U69C stands 1.21; under G10C U69A, 0.831.
With G10U C86G the figure was 0.445; with G10U C86U, 0.867.
For G10U G59U, the self-cleavage worked out at 0.905.
With G10U G59C the figure was 0.857; with G10U G28A, 0.0791; with G11A C19A, 0.0811.
Under G11A G28C stands 0.0936.
As to G11A G28A, the self-cleavage worked out at 0.0268.
Under G11A A51G stands 0.374; under G11A A51U, 0.468.
With G10C G81C the figure was 0.214; with G10C G81U, 0.196; with G10C U60C, 0.8.
G10C U60G: the self-cleavage was 0.95.
With G10C C30A the figure was 0.107; with G10C C30G, 0.212; with G10U G80A, 0.131.
Turning to G10U G80C, the self-cleavage turned out to be 0.0936.
Under G10U G74A stands 0.107; under G10U G25U, 0.125; under G10U G25C, 0.111.
Under G11A C26U stands 1.12.
In the case of G10C C15G, the self-cleavage was 0.0723.
With G10U G38A the figure was 0.103; with G10U G38C, 0.058; with G11A C44G, 0.
On to G11A C44U, for which the self-cleavage is 0.0723.
With G10C G50A the figure was 0.997; with G10C G50U, 0.956; with G10U C61A, 0.665.
Under G10U C61G stands 0.635; under G10C G82C, 0.0875.
Under G10C G82A stands 0.314; under G10C G29A, 0.032; under G10U C62G, 0.641.
As to G10U C62A, the self-cleavage was 0.787.
Under G10U C62U stands 0.722; under G10U G55U, 0.787.
Under G10U G55A stands 0.893; under G11A G67U, 0.237.
Under G11A G68U stands 0.249; under G11A G68A, 0.372.
Take G10U U46G: the self-cleavage stood at 0.597.
Under G10U U46C stands 0.352; under G10C C13A, 0.
Under G10C C13G stands 0.0723; under G10C G59A, 0.895.
Turning to G10C G59C, the self-cleavage worked out at 0.785.
With G10U C13G the figure was 0; with G10U C13A, 0.0332.
With G10C G40C the figure was 0.264; with G10U G39C, 0.138; with G10U A43G, 0.0604.
With G10U A43U the figure was 0.284.
With G10U A43C, the self-cleavage is 0.115.
Under G10C G55C stands 0.759; under G10C G55U, 0.831; under G11A G76U, 0.623.
Turning to G11A G76A, the self-cleavage amounted to 0.578.
With G10U G50C the figure was 0.817.
With G10U G50A the figure was 0.62; with G10U C57A, 0.749.
In the case of G10C G53A, the self-cleavage is 0.95.
With G11A G55C the figure was 0.396.
In the case of G11A G55U, the self-cleavage amounted to 0.328.
With G10C G67U the figure was 0.782; with G10C C61U, 0.578.
Under G10C C61A stands 0.734; under G10C C44G, 0.415.
With G10C C44A the figure was 0.615; with G11A G74A, 0.0769.
G11A G74U: the self-cleavage is 0.123.
As to G10U C21G, the self-cleavage stood at 0.
As for G10U C21U, the self-cleavage came to 0.0532.
Under G10U C21A stands 0.0332; under G10U C22G, 0.0623.
With G10U C22A the figure was 0.0941; with G10U C30U, 0.137.
Under G10C C84U stands 0.604; under G10U C66U, 0.728.
In the case of G10U C66G, the self-cleavage was determined as 0.717.
For the variant G11A C58A, the self-cleavage came out at 0.554.
Under G11A C58U stands 0.322; under G11A C58G, 0.415.
G11A C64G: the self-cleavage was found to be 0.705.
Under G11A C64U stands 0.249; under G10C G39C, 0.359; under G11A C49G, 0.156.
With G10C C57A the figure was 1.06; with G10U G81A, 0.026; with G10U C24G, 0.0886.
Under G10U C24U stands 0.427; under G10U C24A, 0.328.
Take G10U G31C: the self-cleavage is 0.158.
Under G10C C14A stands 0.237; under G10U U47C, 0.499.
With G10U U47A the figure was 0.514.
Under G10C U37G stands 0.262; under G11A G17A, 0.544; under G11A G17C, 0.113.
Consider G11A G17U, for which the self-cleavage worked out at 0.251.
Under G10U U79C stands 0.0615.
Under G10C C48U stands 0.911; under G10C C48A, 0.853.
Under G10C C48G stands 1.17; under G10C A45G, 0.791.
Regarding G11A A78G, the self-cleavage is 0.193.
Consider G10C C86U, for which the self-cleavage came to 1.03.
With G10C C86G the figure was 0.538.
For the variant G10C U27G, the self-cleavage was determined as 0.798.
With G10C U27A the figure was 0.939; with G11A G34U, 0.219; with G11A G34A, 0.358.
Under G11A G31C stands 0.0997; under G11A G31A, 0.114.
With G11A G29A the figure was 0.0633.
Turning to G10U C64G, the self-cleavage worked out at 0.669.
With G10U U12G the figure was 0.172; with G10U U12A, 0.0831.
With G10U U12C, the self-cleavage was found to be 0.0755.
Under G10U G17U stands 0.487; under G10U G17A, 0.704; under G10C U23G, 0.332.
Regarding G10C U23A, the self-cleavage came out at 1.04.
With G11A the figure was 0.42.
With G10U A71C the figure was 0.604.
As to G11A A87G, the self-cleavage worked out at 0.502.
Under G10C G31U stands 0.219; under G10U A77U, 0.174; under G10U A77G, 0.424.
Under G11A C15G stands 0.138.
Under G11A C33G stands 0.0554; under G11A C33A, 0.151.
In the case of G10C U72C, the self-cleavage came out at 0.289.
On to G10C G25C, for which the self-cleavage worked out at 0.178.

For the origin of these results see the RNAGym collection of RNA variant scans (doi:10.7554/elife.80360).
